Holding throughout (test): NADPH fluorescence, initial rates, Michaelis-Menten fit
Substrate in data set [1]: NC(=O)c1ccc[n+]([C@@H]2O[C@H](COP(=O)(O)OP(=O)(O)OC[C@H]3O[C@@H](n4cnc5c(N)ncnc54)[C@H](OP(=O)(O)O)[C@@H]3O)[C@@H](O)[C@H]2O)c1
Format: biochemical, Corynebacterium glutamicum. The note with it: 1 mM isocitrate, 1 mM MnCl2, 20 mM MOPS pH 7.4, 100 mM NaCl, 30 °C, varied: cofactor. The text has this: (§1) NADPH fluorescence, initial rates, Michaelis-Menten fit on CgIDH

Substrate in data set [2]: O=C(O)CC(C(=O)O)C(O)C(=O)O
Type of data set: biochemical, Corynebacterium glutamicum. To be noted: 1 mM NADP+, 1 mM MnCl2, 20 mM MOPS pH 7.4, 100 mM NaCl, 30 °C, DL-isocitrate 0-100 μM.
Text: as §1

Substrate in data set [3]: NC(=O)c1ccc[n+]([C@@H]2O[C@H](COP(=O)(O)OP(=O)(O)OC[C@H]3O[C@@H](n4cnc5c(N)ncnc54)[C@H](OP(=O)(O)O)[C@@H]3O)[C@@H](O)[C@H]2O)c1
Type of data set: biochemical, Azotobacter vinelandii. The note with it: 1 mM isocitrate, 1 mM MnCl2, 20 mM MOPS pH 7.4, 100 mM NaCl, 30 °C, varied: cofactor. The text has this:
(§2) NADPH fluorescence, initial rates, Michaelis-Menten fit on AvIDH

Substrate in data set [4]: O=C(O)CC(C(=O)O)C(O)C(=O)O
Type of data set: biochemical, Azotobacter vinelandii. The note with it: 1 mM NADP+, 1 mM MnCl2, 20 mM MOPS pH 7.4, 100 mM NaCl, 30 °C, DL-isocitrate 0-100 μM.
Text: as §2

B1: CgIDH (Corynebacterium glutamicum ATCC 13032) (protein)
chain: MAKIIWTRTDEAPLLATYSLKPVVEAFAATAGIEVETRDISLAGRILAQFPERLTEDQKVGNALAELGELAKTPEANIIKLPNISASVPQLKAAIKELQDQGYDIPELPDNATTDEEKDILARYNAVKGSAVNPVLREGNSDRRAPIAVKNFVKKFPHRMGEWSADSKTNVATMDANDFRHNEKSIILDAADEVQIKHIAADGTETILKDSLKLLEGEVLDGTVLSAKALDAFLLEQVARAKAEGILFSAHLKATMMKVSDPIIFGHVVRAYFADVFAQYGEQLLAAGLNGENGLAAILSGLESLDNGEEIKAAFEKGLEDGPDLAMVNSARGITNLHVPSDVIVDASMPAMIRTSGHMWNKDDQEQDTLAIIPDSSYAGVYQTVIEDCRKNGAFDPTTMGTVPNVGLMAQKAEEYGSHDKTFRIEADGVVQVVSSNGDVLIEHDVEANDIWRACQVKDAPIQDWVKLAVTRSRLSGMPAVFWLDPERAHDRNLASLVEKYLADHDTEGLDIQILSPVEATQLSIDRIRRGEDTISVTGNVLRDYNTDLFPILELGTSAKMLSVVPLMAGGGLFETGAGGSAPKHVQQVQEENHLRWDSLGEFLALAESFRHELNNNGNTKAGVLADALDKATEKLLNEEKSPSRKVGEIDNRGSHFWLTKFWADELAAQTEDADLAATFAPVAEALNTGAADIDAALLAVQGGATDLGGYYSPNEEKLTNIMRPVAQFNEIVDALKK
notes: full-length gene, C-terminal 6xHis (kept), pET24a, E. coli BL21(DE3), Ni-NTA; about 80 kDa by SEC, monomer
For the protein B1, in data set [1], the Km was 10.3 µM, the kcat was 43.7 s⁻¹ and the kcat/Km stood at 4.3e+06 M⁻¹ s⁻¹. In addition, in data set [2], the Km was 15.0 µM, the kcat was determined as 49.4 s⁻¹ and the kcat/Km worked out at 3.3e+06 M⁻¹ s⁻¹.

B2: AvIDH (Azotobacter vinelandii) (protein)
chain: STPKIIYTLTDEAPALATYSLLPIIKAFTGSSGIAVETRDISLAGRLIATFPEYLTDTQKISDDLAELGKLATTPDANIIKLPNISASVPQLKAAIKELQQQGYKLPDYPEEPKTDTEKDVKARYDKIKGSAVNPVLREGNSDRRAPLSVKNYARKHPHKMGAWSADSKSHVAHMDNGDFYGSEKAALIGAPGSVKIELIAKDGSSTVLKAKTSVQAGEIIDSSVMSKNALRNFIAAEIEDAKKQGVLLSVHLKATMMKVSDPIMFGQIVSEFYKDALTKHAEVLKQIGFDVNNGIGDLYARIKTLPEAKQKEIEADIQAVYAQRPQLAMVNSDKGITNLHVPSDVIVDASMPAMIRDSGKMWGPDGKLHDTKAVIPDRCYAGVYQVVIEDCKQHGAFDPTTMGSVPNVGLMAQKAEEYGSHDKTFQIPADGVVRVTDESGKLLLEQSVEAGDIWRMCQAKDAPIQDWVKLAVNRARATNTPAVFWLDPARAHDAQVIAKVERYLKDYDTSGLDIRILSPVEATRFSLARIREGKDTISVTGNVLRDYLTDLFPIMELGTSAKMLSIVPLMSGGGLFETGAGGSAPKHVQQFLEEGYLRWDSLGEFLALAASLEHLGNAYKNPKALVLASTLDQATGKILDNNKSPARKVGEIDNRGSHFYLALYWAQALAAQTEDKELQAQFTGIAKALTDNETKIVGELAAAQGKPVDIAGYYHPNTDLTSKAIRPSATFNAALAPLA
notes: full-length gene, C-terminal 6xHis (kept), pET24a, E. coli BL21(DE3), Ni-NTA
Turning to B2, in data set [3], the Km turned out to be 5.9 µM, the kcat stood at 38.7 s⁻¹ and the kcat/Km was found to be 6.6e+06 M⁻¹ s⁻¹. Also, in data set [4], the Km is 13.9 µM, the kcat was 44 s⁻¹ and the kcat/Km was 3.2e+06 M⁻¹ s⁻¹.

The record behind these values is PMC9736777, “Expression and Characterization of Monomeric Recombinant Isocitrate Dehydrogenases from Corynebacterium glutamicum and Azotobacter vinelandii for NADPH Regeneration” (International Journal of Molecular Sciences, 2022).
